This is an account of results in patent CN111110862A.

The target in assay [1] is 人CLDN18.2(hCLDN18.2) (human) (UniProt P56856). As to the kind of experiment: flow cytometry, CF633-labelled antibody 2.5μg/ml on hCLDN18.2+cell; background. (In flow cytometry, cells or beads pass a laser one at a time.)
For assay [2] the target is unchanged. Put plainly: flow cytometry, CF488-labelled antibody 10μg/ml on hCLDN18.2+cell; range over the binding value and the time points.
The target in assay [3] is 鼠CLDN18.2(mCLDN18.2) (mouse) (UniProt P56857). Put plainly: cell ELISA on fixed mCLDN18.2+cell; background. On the technique in general: ELISA stands for enzyme-linked immunosorbent assay.
Assay [4] concerns the target 人CLDN18.2(hCLDN18.2) (human) (UniProt P56856). As to the kind of experiment: flow cytometry, CF633-labelled antibody 10μg/ml on hCLDN18.2+cell; range over the binding value and the time points.

Values joined by “and” are separate entries in the source; they are usually repeats but may differ in a detail not shown here. Equal values may be shown once.

Chain of UniProt P56857 (P56857 other isoform, or with tags, fused parts or gaps, form in doubt): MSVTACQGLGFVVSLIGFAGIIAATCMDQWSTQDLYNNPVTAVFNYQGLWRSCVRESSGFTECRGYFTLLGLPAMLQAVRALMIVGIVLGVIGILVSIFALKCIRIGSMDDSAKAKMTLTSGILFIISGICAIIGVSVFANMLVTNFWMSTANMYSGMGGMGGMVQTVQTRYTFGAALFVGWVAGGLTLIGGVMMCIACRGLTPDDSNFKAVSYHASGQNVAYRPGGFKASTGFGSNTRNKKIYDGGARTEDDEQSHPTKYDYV

Neg IgG (和靶点没有结合的非特异性抗体) (antibody) showed a 结合值 (FACS读值) in assay [1] of 932. For the same substance, the 荧光强度值(本底) was 1280 to 3480 in assay [2]; 23.2 and 14.9 in assay [4]. This substance showed an Emax in assay [3] of 0.19.
